Literature values as cited in patent US20060104951A1, “Akt and regulation of RA synovial fibroblast apoptosis” (priority 2004, published 2006).

Tested on: Akt
Conditions: Cell: HL-60

B1: Focal adhesion kinase: pathway kinase whose overexpression activates Akt in HL-60 (protein, UniProt Q05397 2-1052, looked up)
Focal adhesion kinase 1: AAAYLDPNLNHTPNSSTKTHLGTGMERSPGAMERVLKVFHYFESNSEPTTWASIIRHGDATDVRGIIQKIVDSHKVKHVACYGFRLSHLRSEEVHWLHVDMGVSSVREKYELAHPPEEWKYELRIRYLPKGFLNQFTEDKPTLNFFYQQVKSDYMLEIADQVDQEIALKLGCLEIRRSYWEMRGNALEKKSNYEVLEKDVGLKRFFPKSLLDSVKAKTLRKLIQQTFRQFANLNREESILKFFEILSPVYRFDKECFKCALGSSWIISVELAIGPEEGISYLTDKGCNPTHLADFTQVQTIQYSNSEDKDRKGMLQLKIAGAPEPLTVTAPSLTIAENMADLIDGYCRLVNGTSQSFIIRPQKEGERALPSIPKLANSEKQGMRTHAVSVSETDDYAEIIDEEDTYTMPSTRDYEIQRERIELGRCIGEGQFGDVHQGIYMSPENPALAVAIKTCKNCTSDSVREKFLQEALTMRQFDHPHIVKLIGVITENPVWIIMELCTLGELRSFLQVRKYSLDLASLILYAYQLSTALAYLESKRFVHRDIAARNVLVSSNDCVKLGDFGLSRYMEDSTYYKASKGKLPIKWMAPESINFRRFTSASDVWMFGVCMWEILMHGVKPFQGVKNNDVIGRIENGERLPMPPNCPPTLYSLMTKCWAYDPSRRPRFTELKAQLSTILEEEKAQQEERMRMESRRQATVSWDSGGSDEAPPKPSRPGYPSPRSSEGFYPSPQHMVQTNHYQVSGYPGSHGITAMAGSIYPGQASLLDQTDSWNHRPQEIAMWQPNVEDSTVLDLRGIGQVLPTHLMEERLIRQQQEMEEDQRWLEKEERFLKPDVRLSRGSIDREDGSLQGPIGNQHIYQPVGKPDPAAPPKKPPRPGAPGHLGSLASLSSPADSYNEGVKLQPQEISPPPTANLDRSNDKVYENVTGLVKAVIEMSSKIQPAPPEEYVPMVKEVGLALRTLLATVDETIPLLPASTHREIEMAQKLLNSDLGELINKMKLAQQYVMTSLQQEYKKQMLTAAHALAVDAKNLLDVIDQARLKMLGQTRPH
Question: Which Action does the source give for B1 here?
Answer: Its Action is “Activates Akt”.
